Entries after “also recorded” stand apart in the source; their conditions may differ.

Series [1] can be described thus: Fluorescence assay of purified proteins (excitation/emission). The class given is physicochemical. Particulars: protein 10 μM in 1×PBS. The method, then: 100 μL of buffer (1×PBS) containing the protein purified in Example 1 (final concentration: 10 μM) was dispensed into a 96-well plate (SPL Cell Culture Plate, 96 well (SPL, Cat #32096)). Afterward, a fluorescence signal level was detected by fluorescence assay using a Thermo Scientific™ Varioskan™ Flash Multimode Reader.

Series [2] has as its system MCF-7 cells. The series can be described thus: Cell death according to incubation time after various Co-h concentrations (SYTOX Green/DAPI). The following applies: MCF-7, protein 10 μM. The class given is cell-based, human. The method, then: MCF-7 cells were seeded at 5×10^5 cells/mL in a 96-well plate (SPL Cell Culture Plate, 96 well (SPL, Cat #30096)), and cultured at 37° C. for 24 hours (overnight). After the culture for 24 hours, the cells were washed with FBS & Phenol red-free media (RPMI, Well Gene., Korea, Cat #LM011-02), and 100 μL of an FBS-free medium containing the purified protein (final concentration: 10 μM) was added, followed by reaction at 37° C. for 24 hours.
After the reaction for 24 hours, the cells were washed with FBS & Phenol red-free media (RPMI), and then 100 μL of FBS & Phenol red-free media (RPMI) was added again. The reaction was performed by each concentration of the Co-h substrate solution, and then the cells were incubated at 37° C.
After incubation, 50 μL of SYTOX Green (final concentration: 261 nM) staining DNA of dead cells and DAPI 10 μL of DAPI staining DNA of live cells were added, followed by reaction for 5 minutes. Cell death was confirmed by detecting KillerRed, SYTOX Green and DAPI fluorescence according to the light irradiation time for cells using a confocal microscope.

Series [3] deals with MCF-7 cells. The series can be described thus: Cell death according to presence of serum and protein treatment time (Co-h). It counts as cell-based, human. The following applies: MCF-7, protein 10 μM, serum-free media or serum-containing media, Co-h 150 μM. How it is done:
MCF-7 cells were seeded at 5×10^5 cells/mL in a 96-well plate (SPL Cell Culture Plate, 96 well (SPL, Cat #30096)), and cultured at 37° C. for 24 hours (overnight). After the culture for 24 hours, the cells were washed with FBS & Phenol red-free media (RPMI, Well Gene., Korea, Cat #LM011-02), and 100 μL of an FBS-free medium or FBS media (RPMI), containing purified protein (final concentration: 10 μM), was added, followed by reaction at 37° C. over time.
After the reaction, the cells were washed with FBS & Phenol red-free media (RPMI), 100 μL of FBS & Phenol red-free media (RPMI) containing a Co-h substrate solution (final concentration: 150 μM) and SYTOX Green (final concentration: 261 nM) staining DNA of dead cells was added, followed by reaction at 37° C. for 30 minutes.
After the reaction, 10 μL of DAPI staining DNA of live cells was added, followed by reaction for 5 minutes. Cell death was confirmed by observing KillerRed, SYTOX Green and DAPI fluorescence using a confocal microscope.

For series [4], the system named is patient breast cancer cell lines (primary cells, triple negative). The series can be described thus: Cytotoxic effect in patient primary breast cancer cells (triple negative). The class given is cell-based. The following applies: protein 10 μM. The method, then:
Cells were seeded at 5×10^5 cells/mL in 96-well plates (SPL Cell Culture Plate, 96 well (SPL, Cat #30096)), and cultured at 37° C. for 24 hours. After the culture for 24 hours, the cells were washed with primary cell media, and 100 μL of primary cell media containing a purified protein (final concentration: 10 μM) was added, followed by reaction at 37° C. for 12 hours.
After the reaction for 24 hours, the cells were washed with primary cell media, and 100 μL of primary cell media was added. After treatment with a Co-h substrate solution (final concentration: 150 μM) for 5 minutes or irradiation with light at 10 mW/cm^2 for 5 minutes, 50 μL of SYTOX Green (final concentration: 261 nM) staining DNA of dead cells was added, followed by reaction at 37° C. for 30 minutes.
10 μL of DAPI staining DNA of live cells was added, followed by reaction for 5 minutes. Cell death was confirmed by fluorescence imaging of SYTOX Green and DAPI fluorescence according to the type of protein treating cells and the light irradiation time using a confocal microscope. Data on patient breast cancer cell lines used in this example are as follows (Table 5).

A further series concerns MDA-MB-231 cancer cells. The series is described as follows: IVIS in vivo imaging and tumor size in mice with MDA-MB-231 tumors. Set-up: species or system mouse. The following applies: NOD-SCID mice, MDA-MB-231 tumor, protein injected into tumor (50 μM), Co-h 5 μg/50 μL subcutaneously. The method, then:
MDA-MB-231 cancer cells (ATCC) were cultured in RPMI (Corning Inc.) containing 5% FBS (Corning Inc.) and 1% penicillin and streptomycin. Mice used in this experiment were 7-week-old NOD-SCID species, and purchased from Central Lab Animal Inc., and then the mice were raised without diet restriction for 2 weeks for acclimation at this research institute. The weight of a female mouse ranged from 17 to 23 g.
This animal experiment was conducted after approval by the Institute of Animal Care and Use Committee (IACUC) of the Asan Medical Center in compliance with the guidelines. 1×10^6 cells/50 μL of MDA-MB-231 cells diluted in RPMI and 50 μL of Matrigel (Corning Inc.) were subcutaneously injected into the adipose body of a NOD-SCID mouse. On day 9 after cell injection, a protein containing 20 μL of Matrigel (RLuc8.6-KR-LP, final concentration: 50 μM) was injected into a tumor when the tumor size of the mouse was approximately 40 mm^2. After respiratory anesthesia of the mouse, fluorescence emitted from the protein was imaged using an IVIS spectrum (Xenogen Inc.). For BL-PDT, Co-h (5 μg/50 μL, Nanolight Technology.) was diluted in 1×PBS (Corning) and then subcutaneously injected. The light emission from Co-h was imaged after the IVIS spectrum was set to 5 seconds.

B1: KR: first protein KillerRed, ROS-generating protein (superoxide), expressed from pRSET-KillerRed, 31 kDa (protein)
chain: MRGSHHHHHHGMASMTGGQQMGRDLYDDDDKDPMLCCMRRTKQVEKNDEDQKISEGGPALFQSDMTFKIFIDGEVNGQKFTIVADGSSKFPHGDFNVHAVCETGKLPMSWKPICHLIQYGEPFFARYPDGISHFAQECFPEGLSIDRTVRFENDGTMTSHHTYELDDTCVVSRITVNCDGFQPDGPIMRDQLVDILPNETHMFPHGPNAVRQLAFIGFTTADGGLMMGHFDSKMTFNGSRAIEIPGPHFVTIITKQMRDTSDKRDHVCQREVAYAHSVPRITSAIGSDED
modifications: pRSET-KillerRed
notes: first protein KillerRed, ROS-generating protein (superoxide), expressed from pRSET-KillerRed, 31 kDa
Regarding B1, in series [1], the “emission wavelength (fluorescence)” value came to 610 nm and the excitation wavelength came out at 585 nm.

B2: RLuc8.6-KR-LP: fusion protein of RLuc8.6, KillerRed and lead peptide WLEAAYQRFL, 71 kDa (protein)
chain: MRGSHHHHHHGMASMTGGQQMGRDLYDDDDKDPMASKVYDPEQRKRMITGPQWWARCKQMNVLDSFINYYDSEKHAENAVIFLHGNATSSYLWRHVVPHIEPVARCIIPDLIGMGKSGKSGNGSYRLLDHYKYLTAWFELLNLPKKIIFVGHDWGSALAFHYAYEHQDRIKAIVHMESVVDVIESWMGWPDIEEELALIKSEEGEKMVLENNFFVETLLPSKIMRKLEPEEFAAYLEPFKEKGEVRRPTLSWPREIPLVKGGKPDVVQIVRNYNAYLRASDDLPKLFIESDPGFFYNAIVEGAKKFPNTEFVKVKGLHFLQEDAPDEMGKYIKSFVERVLKNEQEFGGGMLCCMRRTKQVEKNDEDQKISEGGPALFQSDMTFKIFIDGEVNGQKFTIVADGSSKFPHGDFNVHAVCETGKLPMSWKPICHLIQYGEPFFARYPDGISHFAQECFPEGLSIDRTVRFENDGTMTSHHTYELDDTCVVSRITVNCDGFQPDGPIMRDQLVDILPNETHMFPHGPNAVRQLAFIGFTTADGGLMMGHFDSKMTFNGSRAIEIPGPHFVTIITKQMRDTSDKRDHVCQREVAYAHSVPRITSAIGSDEDGGGWLEAAYQRFL
modifications: pRSET-RLuc8.6-KillerRed-Lead peptide
B2: in the series with MCF-7 cells [2] (25 μM or 50 μM substrate solution for 5 minutes), the “cell incubation time after which the number of cells stained with SYTOX Green increased” value was ≥ 30 min. For the same molecule, the “cell incubation time at which cells stained with SYTOX Green were observed” value with MCF-7 cells [2] (150 μM substrate solution for 5 minutes) is given as “approximately 10 minutes”. For the same molecule, the “protein treatment time from which the number of cells stained with SYTOX Green increased” value in the series with MCF-7 cells [3] was ~4 h. Further, the “death of Co-h substrate-added cells compared with light irradiation” value in series [4] (Co-h 150 μM for 5 minutes) is on record as “more effectively shown”. Further, the “cytotoxic effect in patient breast cancer cell lines” value in series [4] (Co-h 150 μM for 5 minutes or light 10 mW/cm^2 for 5 minutes) is “a cytotoxic effect was exhibited”. In the series with MDA-MB-231 cancer cells, the tumor size result was “the smallest; also recorded: tumor growth is inhibited”.

These data come from US20220040304A1, “A COMPOSITION FOR CANCER CELL DEATH AND ITS USE” (Industry-University Cooperation Foundation Hanyang …, priority 2018, published 2022).
